{"source": "patent US20030180282A1", "about": "“Method of treatment of thrombotic events” (priority 2002, published 2003)", "molecules": {"B1": {"name": "t-PA: recombinant tissue plasminogen activator, thrombolytic agent (Genentech) (protein, UniProt P00750 36-562, looked up)", "Tissue-type plasminogen …": "SYQVICRDEKTQMIYQQHQSWLRPVLRSNRVEYCWCNSGRAQCHSVPVKSCSEPRCFNGGTCQQALYFSDFVCQCPEGFAGKCCEIDTRATCYEDQGISYRGTWSTAESGAECTNWNSSALAQKPYSGRRPDAIRLGLGNHNYCRNPDRDSKPWCYVFKAGKYSSEFCSTPACSEGNSDCYFGNGSAYRGTHSLTESGASCLPWNSMILIGKVYTAQNPSAQALGLGKHNYCRNPDGDAKPWCHVLKNRRLTWEYCDVPSCSTCGLRQYSQPQFRIKGGLFADIASHPWQAAIFAKHRRSPGERFLCGGILISSCWILSAAHCFQERFPPHHLTVILGRTYRVVPGEEEQKFEVEKYIVHKEFDDDTYDNDIALLQLKSDSSRCAQESSVVRTVCLPPADLQLPDWTECELSGYGKHEALSPFYSERLKEAHVRLYPSSRCTSQHLLNRTVTDNMLCAGDTRSGGPQANLHDACQGDSGGPLVCLNDGRMTLVGIISWGLGCGQKDVPGVYTKVTNYLDWIRDNMRP"}}, "key": {"platelets": {"system": "platelets", "assay": "flow cytometry of platelet surface receptor expression in AMI patients during first 24 hours after r-PA or t-PA", "type": "in vivo, human", "text": "Twenty-three consecutive patients admitted to the emergency rooms of St. Agnes Hospital, or the Union Memorial Hospital between July and December of 1996 with a diagnosis of acute myocardial infarction were included. All patients were enrolled in the randomized trial of Reteplase (r-PA) versus accelerated Alteplase (t-PA) for the treatment of acute myocardial infarction, (GUSTO-III trial).\nBlood samples for PA, and for flow cytometric studies were taken at prespecified intervals as follows: in the emergency room immediately before administration of the thrombolytic therapy and then in the coronary care unit at 3 hours, 6 hours, 12 hours, and finally at 24 hours after initiation of the r-PA or t-PA therapy.\nThirteen patients randomized to r-PA received a double bolus, 10+10 MU thirty minutes apart. Ten patients received t-PA in the accelerated regimen as a 15 mg bolus, then 0.75 mg/kg over 30 minutes, and then 0.50 mg/kg over 60 minutes. During the baseline sampling every patient had received 325 mg of aspirin and each day thereafter, at least 5,000 U of intravenous heparin. Following the administration of thrombolytic therapy all patients received a continuous infusion of heparin for the first 24 hours following thrombolysis as recommended in the GUSTO-III protocol.\nThe schedule of blood drawing, sample preparation and processing were critical issues of the study design, and were monitored by an independent observer. The actual timing of blood collection for the baseline sample was 9.5±1.4 minutes before the start of thrombolytic therapy; 174.6±21.8 minutes for the 3 hours sample; 371.1±24.2 minutes for 6 hours sample; 709.4±17.8 minutes for 12 hours sample; and 1402.9±18.8 minutes for 24 hours sample. Samples were processed within one hour after blood drawing. […] The reasons for early termination were as follows: patient transfer for emergency coronary angioplasty (3 patients), and inability to obtain blood sample (1 patient). Twenty three baseline samples; twenty two samples collected at 3 hours; twenty samples collected at 6 hours; twenty samples collected at 12 hours; and nineteen samples collected at 24 hours were included in the study analysis.\nFor flow cytometric analysis, venous blood (8 ml) was collected in a plastic tube containing 2 ml of acid-citrate-dextrose (ACD) (7.3 g citric acid, 22.0 g sodium citrate ×2H2O and 24.5 glucose in 1000 ml distilled water) and mixed well. The blood-ACD mixture was centrifuged at 1000 r.p.m. for 10 minutes at room temperature. The upper ⅔ of the platelet-rich plasma (PRP) was then collected and adjusted to pH=6.5 by adding ACD. The PRP was then centrifuged at 3000 r.p.m. for 10 minutes. The supernatant was removed and the platelet pellet was gently resuspended in 4 cc of the washing buffer (10 mM Tris/HCl, 0.15 M NaCl, 20 mM EDTA, pH=7.4). Platelets were washed 4 times in the washing buffer, and an additional four times in TBS (10 mM Tris, 0.15 M NaCl, pH=7.4). All cells were then divided into ten plastic capped tubes. Nine portions of washed platelets were incubated with 5 μl fluorescein isothiocyanate (FITC)-conjugated antibodies in the dark at +4° C. for 30 minutes, and one part remained unstained and served as a negative control. Surface antigen expression was measured with monoclonal murine anti-human antibodies: CD9 (p24); CD41a (IIb/IIIa, (IIb(3); CD42b (Ib); CD61(IIIa) (DAKO Corporation, Carpinteria Calif.); CD49b (VLA-2, or (2(1); CD62p (P selectin); CD31 (PECAM-1); CD 41b (IIb); and CD51/CD61 (vitronectin receptor, (v(3) (PharMingen, San Diego Calif.). After incubation, the cells were washed three times with TBS and resuspended in 0.25 ml of 1% paraformaldehyde. Samples were stored in the refrigerator at +4° C., and analyzed on a Becton Dickinson FACScan™ flow cytometry with laser output of 15 mw, excitation at 488 mm, and emission detection at 530±30 nm. […]"}, "[1]": {"system": "platelet-derived biomarkers", "assay": "ASSENT-2 platelet substudy: ELISA of platelet-derived biomarkers in plasma of AMI patients", "type": "in vivo, human", "procedure": "Forty-one patients with ST-segment elevation AMI enrolled in a single ASSENT-2 site (Rashid Hospital, Dubai, United Arab Emirates) were studied. The inclusion and exclusion criteria of ASSENT-2 have been previously reported ([no authors listed] (1999) Lancet 354:716-722). Briefly, patients included in the trial were between 18 and 70 years of age and were seen within 6 hours of symptom onset with >30 minutes of continuous symptoms. […] After informed consent was obtained, 7 serum samples were drawn. Samples were collected at baseline and at 30-minute intervals during a 180-minute period. Within 15 minutes of sample acquisition, plasma was separated by centrifugation at 800 g for 10 minutes, aspirated, placed in vials, and snapped frozen at −20° C.\nEnzyme-linked immunosorbent assay (ELISA) was used according to standard sandwich techniques for CD 31 (sPECAM-1), sVACAM-1, sP-selectin, (R&D Systems Inc. Minneapolis, Minn.), beta-thromboglobulin, Asserachrom® (Diagnostica Stago Inc., Parsippany, N.J.), platelet factor 4 Asserachrom®, thromboxane, and prostacyclin (Cayman Chemical Co., MI). Each sample was measured in duplicate, and the overall intra-assay coefficient of variation was between 3.1%±0.4% and 7.6%±1.0%, with a plasma recovery rate between 89.7% and 98.7%.\nFor all comparisons, statistical analyses were done by using repeated measures ANOVA. Post hoc comparison was performed by use of the Bonferroni t-test to identify specific differences in platelet aggregation and receptor expression between patients treated with TNK and t-PA, and controls. The Mann-Whitney U test was used to analyze non-parametric data. Normally distributed data were expressed as mean±SE, and skewed data as median (range). Probability values of P<0.05 were regarded as statistically significant. Linear regression analysis was applied to normally distributed data for all study participants by using the Statview 4.1 program for analysis.\nIn the ASSENT-2 Platelet Substudy, 21 of the 41 patients enrolled received TNK (30-50 mg), while the remaining 20 received t-PA (40-85 mg). There were no substantial differences in baseline characteristics for the AMI patients."}}, "data": [{"molecule": "B1", "values": [{"measurement": "glycoprotein IIIa expression compared to baseline", "setting": "platelets; 12 hours", "value": "not after t-PA therapy"}, {"measurement": "glycoprotein Ib expression compared to baseline", "setting": "platelets; 12 hours", "value": "significant inhibition"}, {"measurement": "platelet vitronectin receptor expression", "setting": "platelets; 12 hours after thrombolysis", "value": "significant increase"}, {"measurement": "glycoprotein IIIa expression compared to baseline", "setting": "platelets; 24 hours", "value": "not after t-PA therapy"}, {"measurement": "glycoprotein IIb/IIIa expression compared to baseline", "setting": "platelets; 24 hours", "value": "elevated"}, {"measurement": "p24 (CD 9) expression compared to baseline", "setting": "platelets; 24 hours", "value": "higher"}, {"measurement": "platelet vitronectin receptor expression", "setting": "platelets; 24 hours after thrombolysis", "value": "trended toward the baseline"}, {"measurement": "P-selectin expression, early change", "setting": "platelets; early", "value": "early significant decrease"}, {"measurement": "p24 (CD 9) expression compared to baseline", "setting": "platelets; early time points", "value": "no early receptor inhibition"}, {"measurement": "P-selectin expression, later change", "setting": "platelets; following the early decrease", "value": "significant increase"}, {"measurement": "P-selectin plasma concentrations, course", "setting": "[1]; 180-minute period", "value": "increase steadily"}, {"measurement": "plasma levels of PECAM-1", "setting": "[1]; AMI patients after thrombolysis", "value": "not in t-PA-treated patients"}, {"measurement": "release of substances from platelets (plasma biomarkers)", "setting": "[1]; TNK 30-50 mg, t-PA 40-85 mg, 180-minute period", "value": "decreased release"}, {"measurement": "vascular cell adhesion molecule-1 (VCAM-1) release", "setting": "[1]; after 90 minutes", "value": "no marked changes"}, {"measurement": "concentrations of α-granule constituents", "setting": "[1]; to a lesser extent than TNK", "value": "Decreased concentrations"}]}]}
